# Measurements as given in patent publication US20080182978A1, “ANTI-NGF ANTIBODIES AND METHODS USING SAME” (RINAT NEUROSCIENCE CORP, priority 2002, published 2008).
# T1: NT4/5 (Homo sapiens, UniProt P34130)
# T1 sequence (P34130 81-210): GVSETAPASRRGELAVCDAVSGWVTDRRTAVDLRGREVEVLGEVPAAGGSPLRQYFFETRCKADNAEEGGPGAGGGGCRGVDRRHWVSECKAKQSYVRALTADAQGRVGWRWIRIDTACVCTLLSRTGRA
# T2: BDNF (Homo sapiens, UniProt P23560)
# T2 sequence (P23560 129-247): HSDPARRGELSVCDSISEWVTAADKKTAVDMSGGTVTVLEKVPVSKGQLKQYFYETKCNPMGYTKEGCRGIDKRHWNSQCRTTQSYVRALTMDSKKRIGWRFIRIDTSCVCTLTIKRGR
# T3: NT3 (Homo sapiens, UniProt P20783)
# T3 sequence (P20783 139-257): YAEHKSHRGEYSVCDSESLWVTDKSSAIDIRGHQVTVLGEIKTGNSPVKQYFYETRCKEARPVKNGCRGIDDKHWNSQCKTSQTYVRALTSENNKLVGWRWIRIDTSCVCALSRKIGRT
# B1: E3 (Fab): Fab fragment of humanized anti-NGF antibody E3 (antibody, V domains shown)
# VH: QVQLQESGPGLVKPSETLSLTCTVSGFSLIGYDLNWIRQPPGKGLEWIGIIWGDGTTDYNSAVKSRVTISKDTSKNQFSLKLSSVTAADTAVYYCARGGYWYATSYYFDYWGQGTLVTVS
# VL: DIQMTQSPSSLSASVGDRVTITCRASQSISNNLNWYQQKPGKAPKLLIYYTSRFHSGVPSRFSGSGSGTDFTFTISSLQPEDIATYYCQQEHTLPYTFGQGTKLEIKRT
# Experiments:
# human NGF [1] = target: T4, human NGF (Homo sapiens, UniProt P01138); assay: BIAcore affinity determination assay (kon, koff, KD of purified Fabs); type: binding; conditions: Fab on immobilized human NGF
# T4 sequence (P01138 122-241): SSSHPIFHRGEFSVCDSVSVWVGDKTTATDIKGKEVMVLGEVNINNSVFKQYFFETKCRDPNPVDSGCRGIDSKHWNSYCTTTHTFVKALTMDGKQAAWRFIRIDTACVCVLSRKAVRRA
# Procedure: Affinities of anti-NGF Fabs and monoclonal antibodies were determined using the BIAcore300™ surface plasmon resonance (SPR) system (BIAcore, INC, Piscaway N.J.). CM5 chips were activated with N-ethyl-N′-(3-dimethylaminopropyl)-carbodimide hydrochloride (EDC) and N-hydroxysuccinimide (NHS) according to the supplier's instructions. Human NGF was diluted into 10 mM sodium acetate pH 4.0 and injected over the activated chip at a concentration of 0.005 mg/mL. Using variable flow time across the individual chip channels, two ranges of antigen density were achieved: 100-200 response units (RU) for detailed kinetic studies and 500-600 RU for screening assays. The chip was blocked with ethanolamine. […] HBS-EP buffer (0.01M HEPES, pH 7.4, 0.15 NaCl, 3 mM EDTA, 0.005% Surfactant […]) was used as running buffer for all the BIAcore assays.
# Serial dilutions (0.1-10× estimated KD) of purified Fab samples were injected for 1 min at 100 μL/min and dissociation times of up to 2 h were allowed. The concentrations of the Fab proteins were determined by ELISA and/or SDS-PAGE electrophoresis using as a standard a Fab of known concentration (as determined by amino acid analysis). Kinetic association rates (kon) and dissociation rates (koff) were obtained simultaneously by fitting the data to a 1:1 Langmuir binding model (Karlsson, R. Roos, H. Fagerstam, L. Petersson, B. (1994). Methods Enzymology 6. 99-110) using the BIAevaluation program. Equilibrium dissociation constant (KD) values were calculated as koff/kon.
# The binding affinities to human NGF of Fabs E3 and 3C were measured using BIAcore analysis according to the manufacturer's instructions and as described above, except that 100 RU NGF was used on chip to prevent a rebinding effect. Briefly, several concentrations of antibodies (Fabs) were injected for 2 minutes onto a CM5 chip with 100 RU of immobilized human NGF on it, and permitted to dissociate for 1800 seconds. Mouse antibody 911 (Fab) was analyzed as a control. Data was analyzed using BIAevaluation software following the manufacturer's instructions. E3 bound human NGF with a KD of approximately 0.07 nM (and with a kon of about 6.0e5 M-1s-1, and a koff of about 4.2e-5s-1).
# LIF = LIF (Homo sapiens, UniProt P15018); assay: Mouse E17 nodose neuron survival assay, LIF; type: cell-based; conditions: LIF 2.5 nM; antibody up to 200 nM; 48 hours
# Chain of LIF (P15018 23-202, species assumed): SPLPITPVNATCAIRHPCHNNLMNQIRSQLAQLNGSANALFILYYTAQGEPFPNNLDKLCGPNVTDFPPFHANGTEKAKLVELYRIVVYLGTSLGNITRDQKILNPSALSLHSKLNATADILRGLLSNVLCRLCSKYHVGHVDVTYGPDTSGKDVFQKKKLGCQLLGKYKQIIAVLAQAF
# Procedure: (§1) The ability of antibody E3 to specifically block NGF activity was also evaluated by measurement of the capacity of the antibody to inhibit survival of mouse nodose E17 neurons in the presence of saturating concentrations of BDNF or NT4/5. Survival of nodose neurons is supported by BDNF or NT4/5; therefore, survival of these neurons is a sensitive assay to evaluate the BDNF or NT4/5-blocking ability of the anti-NGF antagonist antibody.
# (§2) The survival assay was conducted as follows: time mated pregnant Swiss Webster female mice were euthanised by CO2 inhalation. The uterine horns were removed and the embryos (at embryonic day 17 or 18) were extracted and decapitated. The trigeminal and nodose ganglia were dissected and cleaned. The ganglia were then trypsinised, mechanically dissociated and plated at a density of 100-300 cells per well in defined, serum-free medium in 4-well plates (Greiner) coated with poly-L-ornithine and laminin.
# (§3) E17 nodose neurons were grown either in the absence of added neurotrophic factors (negative control), or with saturating concentrations of BDNF (400 pM) (positive control) or NT4/5 (400 pM) or NGF unrelated growth factor […]. High concentrations of neurotrophins were used, as the goal of this experiment was to test specificity of the antibodies. […]
# NT4/5 = target: T1, NT4/5; assay: Mouse E17 nodose neuron survival assay, NT4/5; type: cell-based; conditions: NT4/5 400 pM; antibody up to 200 nM; 48 hours
# Procedure: as §1, §2, §3
# [2] = target: interaction of human NGF with p75 (Homo sapiens, UniProt P01138); assay: BIAcore: blocking of NGF binding to p75 on chip; conditions: 2.5 nM human NGF preincubated one hour; Fab concentration equal to NGF concentration
# Chain of interaction of human NGF with p75 (P01138 122-241): as the sequence (P01138 122-241) above
# Procedure: (§4) Antibody E3 (interchangeably termed 3E) was selected for further analysis based on the high binding affinity. To test the ability of E3 to prevent the interaction of NGF with the NGF receptors trkA and p75, 2.5 nM of human NGF was premixed and incubated for one hour with 0 to 50 nM of antibody E3 (Fab). After the incubation, samples were injected at 10 ul/minute on a BIAcore CM5 chip containing 260 RU of p75 (channel 2) and 600 RU of trkA (channel 3), and percent binding was determined.
# BDNF = target: T2, BDNF; assay: Mouse E17 nodose neuron survival assay, BDNF; type: cell-based; conditions: BDNF 400 pM; antibody up to 200 nM; 48 hours
# Procedure: as §1, §2, §3
# NT3 = target: T3, NT3; assay: Mouse E17/18 trigeminal neuron survival assay, NT3; type: cell-based; conditions: saturating NT3; antibody up to 200 nM; 48 hours
# Procedure: (§5) The ability of antibody E3 to specifically block NGF activity was evaluated by measurement of the capacity of the antibody to inhibit survival of mouse E17/18 trigeminal neurons in vitro in the presence of saturating concentrations of NGF, the NGF-related neurotrophin NT3, or the NGF-unrelated neurotrophic factor, macrophage stimulating protein (MSP). The survival of mouse E17/18 trigeminal neurons is a sensitive assay to evaluate the NGF-blocking activity of anti-NGF antagonist antibodies because NGF is required to support survival of these neurons at higher concentrations than the level of NGF required to support survival of E13.5 TG neurons).
# as §2
# (§6) E17/18 trigeminal neurons were grown either without added neurotrophic factors (negative control) or in the presence of saturating concentrations of human NGF (400 pM and 15 pM) (positive control); NT3 (400 pM); or MSP (600 pM). […]
# human NGF [3] = target: T4, human NGF; assay: Mouse E17/18 trigeminal neuron survival assay, NGF; type: cell-based; conditions: saturating NGF (400 pM); 48 hours
# Procedure: as §5, §2, §6
# [4] = target: interaction of human NGF with trkA (Homo sapiens, UniProt P01138); assay: BIAcore: blocking of NGF binding to trkA on chip; conditions: 2.5 nM human NGF preincubated one hour; Fab concentration equal to NGF concentration
# Chain of interaction of human NGF with trkA (P01138 122-241): as above
# Procedure: as §4
# [5] = target: macrophage stimulating protein (MSP) (Homo sapiens, UniProt P26927); assay: Mouse E17/18 trigeminal neuron survival assay, MSP; type: cell-based; conditions: MSP 600 pM; antibody up to 200 nM; 48 hours
# Chain of macrophage stimulating protein (MSP) (P26927 19-711, species assumed): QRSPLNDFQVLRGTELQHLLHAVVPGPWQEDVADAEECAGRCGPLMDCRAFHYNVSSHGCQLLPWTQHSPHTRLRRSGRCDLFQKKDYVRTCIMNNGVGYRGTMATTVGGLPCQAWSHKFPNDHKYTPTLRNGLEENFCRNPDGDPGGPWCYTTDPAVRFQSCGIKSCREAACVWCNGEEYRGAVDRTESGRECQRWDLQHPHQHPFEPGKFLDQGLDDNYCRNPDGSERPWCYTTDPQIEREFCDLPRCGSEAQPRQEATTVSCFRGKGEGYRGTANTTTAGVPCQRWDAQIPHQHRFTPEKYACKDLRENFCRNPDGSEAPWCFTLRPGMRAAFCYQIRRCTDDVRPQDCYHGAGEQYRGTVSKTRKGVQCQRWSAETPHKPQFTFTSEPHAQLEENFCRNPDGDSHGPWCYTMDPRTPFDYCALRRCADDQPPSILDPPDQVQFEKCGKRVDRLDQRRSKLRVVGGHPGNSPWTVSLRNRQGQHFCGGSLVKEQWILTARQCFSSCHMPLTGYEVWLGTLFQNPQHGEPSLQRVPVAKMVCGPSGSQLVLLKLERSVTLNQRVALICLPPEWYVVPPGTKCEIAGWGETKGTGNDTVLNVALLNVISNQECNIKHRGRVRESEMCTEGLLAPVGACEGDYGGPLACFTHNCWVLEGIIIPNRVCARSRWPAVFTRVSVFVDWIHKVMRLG
# Procedure: as §5, §2, §6
molecule,measurement,setting,value
B1,koff,human NGF [1],<4e-05 s⁻¹
same,kon,human NGF [1],600000 M⁻¹ s⁻¹
same,survival of E17 nodose neurons promoted by LIF,LIF,did not inhibit
same,survival of E17 nodose neurons promoted by NT4/5,NT4/5,did not inhibit
same,NGF binding to p75 (percent maximum RU),[2],no NGF binding was observed
same,survival of E17 nodose neurons promoted by BDNF,BDNF,did not inhibit
same,survival of E17/18 trigeminal neurons promoted by NT3,NT3,did not inhibit
same,survival of E17/18 trigeminal neurons promoted by NGF,human NGF [3],totally blocked
same,NGF binding to trkA (percent maximum RU),[4],no NGF binding was observed
same,survival of E17/18 trigeminal neurons promoted by MSP,[5],did not inhibit
